Experimental findings from PMC7594496, “Combinatorial multivalent interactions drive cooperative assembly of the COPII coat” (The Journal of Cell Biology, 2020) are described below.

This test has as its target T1, Sec23–Sec24 complex (WT) (yeast (S. cerevisiae), UniProt P15303 1-768; P40482 1-926).
T1 construct: Sec23, COPII inner coat subunit, yeast; Co-expressed and co-purified complex; also called Sec23 and His-Sec24; inner coat; source: Sf9 cells (pFastbac), purified (HisTrap HP, HiTrap Q HP)
Nature of the test: liposome flotation (coat recruitment to synthetic liposomes); purified Sar1 (15 µg/ml), Sec23–Sec24 (20 µg/ml), Sec13–Sec31 (30 µg/ml), 0.27 mM major/minor liposomes (0.4 µm), 0.1 mM GMP-PNP, HKM buffer pH 7.0, 30 min at 25°C; liposomes floated through sucrose; bound proteins by SDS-PAGE and SYPRO red. The conditions noted are these: both partners purified.

T1 sequence (P15303 whole entry, chain 1 of 2): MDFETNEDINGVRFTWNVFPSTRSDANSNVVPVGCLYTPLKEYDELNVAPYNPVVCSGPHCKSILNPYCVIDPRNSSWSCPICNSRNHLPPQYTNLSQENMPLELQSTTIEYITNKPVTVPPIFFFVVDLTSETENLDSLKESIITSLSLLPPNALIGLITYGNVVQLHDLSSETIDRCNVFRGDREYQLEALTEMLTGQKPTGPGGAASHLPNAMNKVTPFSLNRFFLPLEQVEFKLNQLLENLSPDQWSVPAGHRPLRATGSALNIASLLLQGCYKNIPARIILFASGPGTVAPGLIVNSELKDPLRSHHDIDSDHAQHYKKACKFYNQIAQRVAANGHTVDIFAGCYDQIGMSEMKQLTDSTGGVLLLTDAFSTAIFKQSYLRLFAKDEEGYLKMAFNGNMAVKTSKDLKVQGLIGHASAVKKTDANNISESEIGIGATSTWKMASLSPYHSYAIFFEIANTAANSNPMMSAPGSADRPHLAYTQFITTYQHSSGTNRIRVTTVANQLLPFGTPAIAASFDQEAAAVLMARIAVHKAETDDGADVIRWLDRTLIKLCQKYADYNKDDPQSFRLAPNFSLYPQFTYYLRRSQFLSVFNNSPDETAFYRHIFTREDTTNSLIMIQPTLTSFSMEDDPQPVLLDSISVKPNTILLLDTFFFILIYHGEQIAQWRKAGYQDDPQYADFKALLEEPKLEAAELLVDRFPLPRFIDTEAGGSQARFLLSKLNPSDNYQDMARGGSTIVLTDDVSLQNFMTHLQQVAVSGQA
T1 sequence (P40482 whole entry, chain 2 of 2): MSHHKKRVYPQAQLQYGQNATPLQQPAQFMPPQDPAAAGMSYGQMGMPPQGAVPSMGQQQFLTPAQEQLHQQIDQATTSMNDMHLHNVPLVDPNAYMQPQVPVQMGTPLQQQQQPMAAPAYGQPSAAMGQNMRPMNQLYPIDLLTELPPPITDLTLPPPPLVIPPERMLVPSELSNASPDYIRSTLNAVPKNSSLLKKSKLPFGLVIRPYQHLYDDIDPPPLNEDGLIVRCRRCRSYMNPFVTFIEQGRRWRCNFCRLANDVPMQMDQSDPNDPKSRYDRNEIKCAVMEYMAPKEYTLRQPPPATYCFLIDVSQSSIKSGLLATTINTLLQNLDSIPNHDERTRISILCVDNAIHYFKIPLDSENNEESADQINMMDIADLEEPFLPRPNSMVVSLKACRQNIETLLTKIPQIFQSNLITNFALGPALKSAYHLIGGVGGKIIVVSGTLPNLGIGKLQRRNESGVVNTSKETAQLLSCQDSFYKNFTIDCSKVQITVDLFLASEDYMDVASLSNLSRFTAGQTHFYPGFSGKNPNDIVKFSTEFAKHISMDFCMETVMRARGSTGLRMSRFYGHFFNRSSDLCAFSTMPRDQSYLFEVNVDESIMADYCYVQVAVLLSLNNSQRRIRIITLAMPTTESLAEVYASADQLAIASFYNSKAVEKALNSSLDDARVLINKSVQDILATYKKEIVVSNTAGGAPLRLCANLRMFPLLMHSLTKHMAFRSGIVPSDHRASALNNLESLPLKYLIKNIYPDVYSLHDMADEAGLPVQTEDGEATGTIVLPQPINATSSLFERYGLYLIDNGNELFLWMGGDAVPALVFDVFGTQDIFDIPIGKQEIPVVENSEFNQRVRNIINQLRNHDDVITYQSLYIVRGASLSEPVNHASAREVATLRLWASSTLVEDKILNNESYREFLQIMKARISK

B1: Sec13–Sec31 complex (WT) (complex, yeast (S. cerevisiae) | S. cerevisiae)
chain 1: MVVIANAHNELIHDAVLDYYGKRLATCSSDKTIKIFEVEGETHKLIDTLTGHEGPVWRVDWAHPKFGTILASCSYDGKVLIWKEENGRWSQIAVHAVHSASVNSVQWAPHEYGPLLLVASSDGKVSVVEFKENGTTSPIIIDAHAIGVNSASWAPATIEEDGEHNGTKESRKFVTGGADNLVKIWKYNSDAQTYVLESTLEGHSDWVRDVAWSPTVLLRSYLASVSQDRTCIIWTQDNEQGPWKKTLLKEEKFPDVLWRASWSLSGNVLALSGGDNKVTLWKENLEGKWEPAGEVHQ
chain 2: MVKLAEFSRTATFAWSHDKIPLLVSGTVSGTVDANFSTDSSLELWSLLAADSEKPIASLQVDSKFNDLDWSHNNKIIAGALDNGSLELYSTNEANNAINSMARFSNHSSSVKTVKFNAKQDNVLASGGNNGEIFIWDMNKCTESPSNYTPLTPGQSMSSVDEVISLAWNQSLAHVFASAGSSNFASIWDLKAKKEVIHLSYTSPNSGIKQQLSVVEWHPKNSTRVATATGSDNDPSILIWDLRNANTPLQTLNQGHQKGILSLDWCHQDEHLLLSSGRDNTVLLWNPESAEQLSQFPARGNWCFKTKFAPEAPDLFACASFDNKIEVQTLQNLTNTLDEQETETKQQESETDFWNNVSREESKEKPTVFHLQAPTWYGEPSPAAHWAFGGKLVQITPDGKGVSITNPKISGLESNTTLSEALKTKDFKPLINQRLVKVIDDVNEEDWNLLEKLSMDGTEEFLKEALAFDNDESDAQDDANNEKEDDGEEFFQQIETNFQPEGDFSLSGNIEQTISKNLVSGNIKSAVKNSLENDLLMEAMVIALDSNNERLKESVKNAYFAKYGSKSSLSRILYSISKREVDDLVENLDVSQWKFISKAIQNLYPNDIAQRNEMLIKLGDRLKENGHRQDSLTLYLAAGSLDKVASIWLSEFPDLEDKLKKDNKTIYEAHSECLTEFIERFTVFSNFINGSSTINNEQLIAKFLEFINLTTSTGNFELATEFLNSLPSDNEEVKTEKARVLIASGKSLPAQNPATATTSKAKYTNAKTNKNVPVLPTPGMPSTTSIPSMQAPFYGMTPGASANALPPKPYVPATTTSAPVHTEGKYAPPSQPSMASPFVNKTNSSTRLNSFAPPPNPYATATVPATNVSTTSIPQNTFAPIQPGMPIMGDYNAQSSSIPSQPPINAVSGQTPHLNRKANDGWNDLPLKVKEKPSRAKAVSVAPPNILSTPTPLNGIPANAASTMPPPPLSRAPSSVSMVSPPPLHKNSRVPSLVATSESPRASISNPYAPPQSSQQFPIGTISTANQTSNTAQVASSNPYAPPPQQRVATPLSGGVPPAPLPKASNPYAPTATTQPNGSSYPPTGPYTNNHTMTSPPPVFNKPPTGPPPISMKKRSNKLASIEQNPSQGATYPPTLSSSASPLQPSQPPTLASQVNTSAENVSHEIPADQQPIVDFLKEELARVTPLTPKEYSKQLKDCDKRLKILFYHLEKQDLLTQPTIDCLHDLVALMKEKKYKEAMVIHANIATNHAQEGGNWLTGVKRLIGIAEATLN
notes: Sec13, COPII outer coat subunit, yeast; Sec31, COPII outer coat subunit, S. cerevisiae; disordered proline-rich region defined as residues 764-1,174; also called outer coat; WT Sec31; source: Sf9 cells (pFastbac), purified (HisTrap HP, TEV cleavage of the 6xHis tag on Sec31, HiTrap Q HP); not shown: His6, N-terminal, cleaved
For the molecule B1, the binding result is given as “binds”.
